Measurements as given in PMC8857470, “Molecular insights into the maturation of phosphodiesterase 6 by the specialized chaperone complex of HSP90 with AIPL1” (The Journal of Biological Chemistry, 2022).
Values joined by “and” are separate entries in the source; they are usually repeats but may differ in a detail not shown here. Equal entries are not always repeated.

Tests used:
Conditions in all cases: both partners purified
[1] = target: T1, Avi-tagged HSP90β (full-length human HSP90β, residues 1–724) (human, UniProt P08238 1-724, biotin (in vivo biotinylation, N-terminally biotinylated)); assay: BLI; HSP90_(AMPPNP) (closed state): biotinylated Avi-tagged HSP90β on streptavidin sensors, AIPL1 or mutants in solution; Octet RED96, 26 °C, 25 mM Tris, 200 mM NaCl, 2.5% glycerol, 1 mM TCEP, 0.5 mg/ml BSA, pH 7.5; 1:1 kinetic fit (KD = koff/kon) and steady-state fit
T1 construct: HSP90β, human, residues 1-724, cDNA isolated from HEK293T cells; Modified pET21a vector: N-terminal His6-tag, then the Avi tag, then a TEV cleavage site; Used apo (open state) or after incubation with AMPPNP (closed state); the two states are told apart by the assay; Host surmised to be E. coli; also called His6-Avi-tagged HSP90β; N-terminally biotinylated hHSP90B; source: cells grown in TB media …

[2] = target: T1, Avi-tagged HSP90β (full-length human …); assay: BLI; apo HSP90: biotinylated Avi-tagged HSP90β on streptavidin sensors, AIPL1 in solution; Octet RED96, 26 °C, 25 mM Tris, 200 mM NaCl, 2.5% glycerol, 1 mM TCEP, 0.5 mg/ml BSA, pH 7.5; 1:1 kinetic fit (KD = koff/kon) and steady-state fit
[3] = target: T2, full-length human HSP90β (residues 1–724), pET15b construct (human, UniProt P08238 1-724); assay: cross-linking + other: mass photometry; DSS (0.5 mM) or glutaraldehyde (0.03%) added to HSP90β (15 μM), AIPL1 (25 μM) or their mixture (HSP90_(AMPPNP)/AIPL1), 15 to 30 min at 25 °C, 25 mM Hepes pH 7.5, 200 mM NaCl, 5% glycerol, 1 mM TCEP; products on 3 to 8% Tris-acetate gel and by mass photometry
T2 construct: HSP90β, human, residues 1-724, cDNA isolated from HEK293T cells; Cloned into pET15b through Nco1-Nde1 sites; Host surmised to be E. coli; also called apo HSP90; HSP90_(AMPPNP); source: purified by SEC
T2 sequence (P08238 whole entry, the tested form may be a part): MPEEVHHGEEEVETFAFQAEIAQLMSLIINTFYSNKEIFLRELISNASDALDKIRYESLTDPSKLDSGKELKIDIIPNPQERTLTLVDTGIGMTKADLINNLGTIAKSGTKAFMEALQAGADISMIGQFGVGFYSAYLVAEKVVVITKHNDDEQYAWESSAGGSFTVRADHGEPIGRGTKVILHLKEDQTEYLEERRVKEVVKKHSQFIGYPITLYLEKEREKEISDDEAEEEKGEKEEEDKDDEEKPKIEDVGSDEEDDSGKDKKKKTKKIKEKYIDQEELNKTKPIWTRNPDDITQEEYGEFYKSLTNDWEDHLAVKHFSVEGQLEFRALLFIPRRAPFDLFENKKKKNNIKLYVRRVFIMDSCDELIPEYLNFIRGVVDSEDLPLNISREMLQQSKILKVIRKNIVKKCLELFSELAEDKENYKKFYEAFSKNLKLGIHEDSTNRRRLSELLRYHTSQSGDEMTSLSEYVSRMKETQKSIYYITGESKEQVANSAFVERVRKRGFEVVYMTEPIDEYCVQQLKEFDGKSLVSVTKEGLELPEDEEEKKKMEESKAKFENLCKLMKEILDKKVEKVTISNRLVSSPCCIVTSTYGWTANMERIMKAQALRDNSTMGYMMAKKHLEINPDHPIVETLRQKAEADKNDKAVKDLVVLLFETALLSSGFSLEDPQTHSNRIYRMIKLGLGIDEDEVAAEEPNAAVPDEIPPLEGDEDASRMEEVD

T1 sequence (P08238 whole entry, the tested form may be a part): as above

| binding result [1] | Kd [2] | koff [2] [s⁻¹] | kon [2] [M⁻¹ s⁻¹] | stoichiometry N [3] | Kd [1] [µM] | koff [1] [s⁻¹] | kon [1] [M⁻¹ s⁻¹] | Binder |
| --- | --- | --- | --- | --- | --- | --- | --- | --- |
| binds |  |  |  |  |  |  |  | AIPL1-Δα3 (Δ111–132) (natural protein, mouse, AIPL1, mouse, residues before the replaced stretch 111-132; five glycine residues that replace residues 111 to 132 of AIPL1 (told in words); AIPL1, mouse, residues after the replaced stretch 111-132, to the end of the full-length protein (aa 328); also called AIPL1-Δα3 (loop deletion); α3-helix deletion; source: E. coli BL21-(DE3), purified (Ni-NTA, Mono Q5, SEC)) MDVSLLLNVEGVKKTILHGGTGELPSFITGSRVTFHFRTMKCDDERTVIDDSKQVGQPMSIIIGNMFKLEVWETLLTSMRLGEVAEFWCDTIHTGVYPMLSRSLRQVAEGGGGGGGYEDLDELQKEPQPLVFLIELLQVEAPNEYQRETWNLNNEERMQAVPLLHGEGNRLYKLGRYDQAATKYQEAIVCLRNLQTKEKPWEVEWLKLEKMINTLILNYCQCLLKKEEYYEVLEHTSDILRHHPGIVKAYYMRARAHAEVWNAEEAKADLEKVLELEPSMRKAVLRELRLLESRLADKQEEERQRCRSMLG |
|  | ~17 µM and 32 µM and 33 µM | 1.2 | 71000 | 0.5 AIPL1 per HSP90 chain (1:2) | 4.8 | 0.32 | 150000 | full-length mouse AIPL1 (aa 1–328) (natural protein, UniProt Q924K1 1-328, looked up, also called wt AIPL1; source: E. coli BL21-(DE3), purified (Ni-NTA, Mono Q5, SEC)) MDVSLLLNVEGVKKTILHGGTGELPSFITGSRVTFHFRTMKCDDERTVIDDSKQVGQPMSIIIGNMFKLEVWETLLTSMRLGEVAEFWCDTIHTGVYPMLSRSLRQVAEGKDPTSWHVHTCGLANMFAYHTLGYEDLDELQKEPQPLVFLIELLQVEAPNEYQRETWNLNNEERMQAVPLLHGEGNRLYKLGRYDQAATKYQEAIVCLRNLQTKEKPWEVEWLKLEKMINTLILNYCQCLLKKEEYYEVLEHTSDILRHHPGIVKAYYMRARAHAEVWNAEEAKADLEKVLELEPSMRKAVLRELRLLESRLADKQEEERQRCRSMLG |
|  |  |  |  |  | 27 |  |  | AIPL1_(1–316) (domain or fragment, mouse, UniProt Q924K1 1-316, looked up, source: E. coli BL21-(DE3), purified (Ni-NTA, Mono Q5, SEC)) MDVSLLLNVEGVKKTILHGGTGELPSFITGSRVTFHFRTMKCDDERTVIDDSKQVGQPMSIIIGNMFKLEVWETLLTSMRLGEVAEFWCDTIHTGVYPMLSRSLRQVAEGKDPTSWHVHTCGLANMFAYHTLGYEDLDELQKEPQPLVFLIELLQVEAPNEYQRETWNLNNEERMQAVPLLHGEGNRLYKLGRYDQAATKYQEAIVCLRNLQTKEKPWEVEWLKLEKMINTLILNYCQCLLKKEEYYEVLEHTSDILRHHPGIVKAYYMRARAHAEVWNAEEAKADLEKVLELEPSMRKAVLRELRLLESRLADKQ |
